The supplement of paper PMC7125110
± gives the standard error. Variants at the floor of the assay were thinned out.

B1: glmS ribozyme (parent)
chain: AUAAAAGCGCCAGAACUACAGAAAUGUAGUUGACGAGGAGGAGGUUUAUCGAAUUUUCGGCGGAUGCCUCCAAA

Columns and labels:
Settings in all cases: with glucosamine-6-phosphate
glucosamine-6-phosphate [1] = variants of: B1; assay: self-cleavage kobs at 160 uM GlcN6P; higher = faster cleavage; RNA array
How it was run: (§1)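 Glucosamine-6-phosphate in HEPES/KCl/Mg(OAc)2 buffer, at 40 μM to 10 mM, was flowed over barcoded ribozyme variants transcribed in situ by E. coli RNA polymerase on sequenced MiSeq chips. Tracking was through a hybridised Cy3 probe at 37 °C. kobs, kcat and KM came from exponential decay fits and weighted Michaelis–Menten fits of normalised per-tile medians.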

glucosamine-6-phosphate [2] = variants of: B1; assay: self-cleavage kobs at 640 uM GlcN6P; higher = faster cleavage; RNA array
How it was run: as §1

glucosamine-6-phosphate [3] = variants of: B1; assay: self-cleavage kobs at 2500 uM GlcN6P; higher = faster cleavage; RNA array
How it was run: as §1

glucosamine-6-phosphate [4] = variants of: B1; assay: self-cleavage kobs at 10000 uM GlcN6P; higher = faster cleavage; RNA array
How it was run: as §1

Variant	self-cleavage kobs at 160 uM GlcN6P (glucosamine-6-phosphate [1]) [s⁻¹]	self-cleavage kobs at 640 uM GlcN6P (glucosamine-6-phosphate [2]) [s⁻¹]	self-cleavage kobs at 2500 uM GlcN6P (glucosamine-6-phosphate [3]) [s⁻¹]	self-cleavage kobs at 10000 uM GlcN6P (glucosamine-6-phosphate [4]) [s⁻¹]
AUAAAAGCGCCAGAACUACAGAAAUGUAGUUGACGAGUAGGAGUUUUAUAGAAUUUUCGGCGGUUGCCUCCAAA	< 1e-05			
AUAAAAGCGCGAGAACUACAGAAAUGUAAUUGACGAUGAGGAGGUUUAUCGAAUUUUCGGCGGAUGCCUCCAAA	< 1e-05	< 1e-05		
AUAAAAGCGCCGGAACUACAGAAAUGUAGUUGACGAGGAGGAGGUUUAUCUAAUUUUCGGCGGAUACCUCCAAA	< 1e-05		< 1e-05	
AUAAAAGCGCCAGAACUACAGAAAUGUAGUUGUCGAGGAGGAGGUUCAUCGAAUUUUCGGCGGAUGGCUCCAAA	< 1e-05	< 1e-05	< 1e-05	
AUAAAAGCGCCAGAACUACAGAAAUGUAGUUGACGAGGAAGAGGUUCAUCGAAUUUUCGGCGGAUGCCUCCAAA	0.000162 ± 4.2e-05			0.00144 ± 0.00069
AUAAAAUCGCCAGAACUACAGAAAUGUAGUUGACGAGGAGGAGGUUUAUCUAAUUUUCGGCGGAUGCCUCCAAA	< 1e-05	< 1e-05	< 1e-05	< 1e-05
AUAAAAGGGCCAGAACUACAGAAAUGUAGUUGACGAUGAGGAGGUUUAUCUAAUUUUCGGCGGAUGCCUCCAAA	< 1e-05	< 1e-05		
AUAAAAGCGCCAGAACUACAGAAAUGUAGUUGACGAGGAGGAGGUUUAUCGCAUUUUAGGCGGAUGCCUCCAAA	< 1e-05	< 1e-05		< 1e-05
AUAAAGGCGCCAGAACUACAGAAAUGUAGUUGACGAGGAGAUGGUUUAUCGAAUUUUCGGCGGUUGCCUCCAAA	< 1e-05		< 1e-05	
AUAAAAGCGCCAGAACUACAGAAAUGUAGUUGACGAGGAGGAGGUUUAUCGAAUUUCCGACGGAUGCCUCCAAA	< 1e-05	< 1e-05	< 1e-05	
AUAAAAGCGACAGCACUACAGAAAUGUAGUUGACGACGAGGAGUUUUAUCGAAUUUUCGGUGGAUGCCUCCAAA	< 1e-05			
AUAAAAGCGCCAGAACUACAGAAAUGUAGAUGACCAGGAGGAGGUUUAUGGAAUUUUCGGCGGAUGCAUCUAAA	8.36e-05 ± 2.8e-05	0.00197 ± 0.00057	0.000671 ± 0.00025	
AUAAAAGAGCCAGAACUACAGAAAUGUAGUUGACGAGGAGGAGGUUUAUCGAAUUUUCGUCGGAUGCCACCAAA	< 1e-05	< 1e-05		
AUAAAAGCGCCAGAACUACAGAAAUGUAGUUGACGAGGAGGAAGUUUAUCGAAUUUUUGGCGGAUGCCUCCAAA	< 1e-05	< 1e-05		< 1e-05
AUAAAAGCGCCAGAACUACAGAAAUGUAGUUGACGAGUAGGAGGUUUAUCGAAUUUUUGGCGGAUGCAUCCAAA	7.38e-05 ± 3.4e-05	0.00022 ± 8.3e-05	6.21e-05 ± 3.1e-05	
AUAAAAGCGCAAGAACUACAGAAAUGUAGUUGAUCAGGAGGAGGUUUAUCGAAUUUUCGGCGGAUGCCUCCAAA	< 1e-05		< 1e-05	
AUAAAAGCGCGAGAACUACAGAAAUGUAGUUGACGAGGCGGAGGUUUAUCGAAUUUUCGGCGGUUGCCUCCAAA	< 1e-05	< 1e-05		
AUAAACCCGCCAGAUCUACAGAAAUGUAGUUGACGAGGAGGAGGUUUAUCGAAUUUUCGGCGGAUGCCUCCAAA	< 1e-05	< 1e-05	< 1e-05	
AUAAAAGCGCCAGAACUACAGAAAUGUAGUUCAUGUGGAGGAGGUUUAUCGAAUUUUCGGUGGAUGCCUCCAAA	< 1e-05	< 1e-05		
AUAAAAGCGCCAGAACUACAGAAAUGUAGUUGACGAGGAGUAUGUUUAUCUAAUUUUCGGCGGAUGCCUCCAAA	< 1e-05		< 1e-05	
AUAAAAGCGCCUGAACUACAGAAAUGUAGUUGACGAGCAGGAGGUUUAUCGAGUCUUCGGCGGAUGGCUCCAAA	< 1e-05	< 1e-05	< 1e-05	
AUAAAAGCGCCACAACUACAGAAAUGUAGUUGACGAGGAGGGGGUUUAUCCAAUUCUCGGCGGAUGACUCCAAA	< 1e-05		< 1e-05	
AUAAAAGCGCCAGAACUACAGAAAUGUAUUUGACGAGGAGGUGGUUUAUCGUAUUUUCGGCGGAUGGCUCCAAA	< 1e-05	< 1e-05		
AUAAAAGCGCCAGAACUACAGAAAUGUAGUUGUCGAGGAGGAGGGUUAUCGAAUUUUCGGCGGAUGCCUCCAAA	< 1e-05			3.8e-05 ± 7.6e-06
AUAAAAGCUCCGGAACUACAGAAAUGUAAUUGACGAGGAGGAGGUUUAUCGAAUUAUCGGCGGAUGCCUCCAAA	< 1e-05	< 1e-05	< 1e-05	
AUAAAAUCGCCAGAUCUACAGAAAUGUAGUUGACGAGGAGGAGGUUUAUCUAAUUUUCGGUGGAUGGCUCCAAA	< 1e-05	< 1e-05		
AUAAAACCGCCAGAACUACAGAAAUGUAGUUGACGAGGAGGAGGUUUAUCGAAUUUUCGGCGGAUGCGUCCAAA	< 1e-05	< 1e-05	< 1e-05	< 1e-05
AUAAACGCGCCAGAACUACAGAAAUGUAGUUGACGAGGAGGAGGUUUAUCGAAUUUUCGGCGGAUUCCUCCAAA	< 1e-05	< 1e-05	< 1e-05	
AUAAAAGCGGCAGAACUACAGAAAUGUAGUUGACGAGGAGGAGGUUUAUCGACUUUUCGGCGGAUGCCUCCAAA	< 1e-05	< 1e-05	< 1e-05	< 1e-05
AUAAAAGAGCCAGAACUACAGAAAUGUAGUUGACCAGGAGGAGGUUUAUCGAAUUUUCGGGGGAUGCCUCCAAA	< 1e-05	< 1e-05	< 1e-05	
